Drawing on publication PMC5415106, this text covers response for two molecules.

What all share (experiment): GST pull-down, phosphorimaging
Holding throughout (conditions): chain shown with the change, 10 pmoles GST-Dpb11, read off a plot

The target in assay [1] is T1, GST-Dpb11-wild-type, P47027.
T1 chain: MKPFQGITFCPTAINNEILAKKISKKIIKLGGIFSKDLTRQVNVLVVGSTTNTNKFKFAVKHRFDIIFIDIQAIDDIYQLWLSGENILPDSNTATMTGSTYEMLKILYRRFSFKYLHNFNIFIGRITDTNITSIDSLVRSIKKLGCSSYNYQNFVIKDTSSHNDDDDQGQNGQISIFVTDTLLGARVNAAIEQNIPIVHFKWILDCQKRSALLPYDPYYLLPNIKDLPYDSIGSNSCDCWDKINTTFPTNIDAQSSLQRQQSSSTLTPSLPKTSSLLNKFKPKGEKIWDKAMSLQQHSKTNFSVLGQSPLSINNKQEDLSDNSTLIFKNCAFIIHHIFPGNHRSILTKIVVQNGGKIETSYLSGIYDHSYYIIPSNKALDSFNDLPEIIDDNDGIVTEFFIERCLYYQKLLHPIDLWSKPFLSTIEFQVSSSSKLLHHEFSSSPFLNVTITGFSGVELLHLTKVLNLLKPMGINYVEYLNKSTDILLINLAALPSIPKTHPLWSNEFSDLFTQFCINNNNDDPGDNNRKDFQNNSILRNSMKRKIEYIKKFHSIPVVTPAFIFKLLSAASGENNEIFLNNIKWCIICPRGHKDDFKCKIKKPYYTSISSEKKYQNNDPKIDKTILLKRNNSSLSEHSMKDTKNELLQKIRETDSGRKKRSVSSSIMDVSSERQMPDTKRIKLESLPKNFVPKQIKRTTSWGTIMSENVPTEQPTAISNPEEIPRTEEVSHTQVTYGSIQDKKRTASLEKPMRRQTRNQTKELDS

Assay [2] concerns the target T2, Sld3 (protein of Fig 3D; the legend prints 'CDK-phosphorylated Sld2'), P53135.
T2 chain: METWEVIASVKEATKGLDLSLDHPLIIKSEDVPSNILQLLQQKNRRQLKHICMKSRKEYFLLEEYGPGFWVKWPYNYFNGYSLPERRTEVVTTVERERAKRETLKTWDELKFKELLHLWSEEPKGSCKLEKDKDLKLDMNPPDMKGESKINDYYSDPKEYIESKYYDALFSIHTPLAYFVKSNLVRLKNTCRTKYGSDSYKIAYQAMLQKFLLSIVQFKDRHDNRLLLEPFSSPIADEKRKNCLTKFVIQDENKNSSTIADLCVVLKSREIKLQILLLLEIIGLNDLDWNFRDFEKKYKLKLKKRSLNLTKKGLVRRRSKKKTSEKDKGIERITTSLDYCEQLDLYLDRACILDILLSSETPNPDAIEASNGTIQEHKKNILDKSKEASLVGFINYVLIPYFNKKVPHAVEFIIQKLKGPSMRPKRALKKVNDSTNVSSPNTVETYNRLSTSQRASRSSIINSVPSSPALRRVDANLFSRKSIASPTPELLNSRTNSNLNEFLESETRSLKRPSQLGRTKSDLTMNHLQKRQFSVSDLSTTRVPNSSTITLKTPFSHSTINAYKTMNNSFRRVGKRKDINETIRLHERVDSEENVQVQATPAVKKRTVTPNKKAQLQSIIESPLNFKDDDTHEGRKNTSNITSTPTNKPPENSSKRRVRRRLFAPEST

For assay [3], the target named is T3, PKA-GINS, Q12488.
T3 chain 1: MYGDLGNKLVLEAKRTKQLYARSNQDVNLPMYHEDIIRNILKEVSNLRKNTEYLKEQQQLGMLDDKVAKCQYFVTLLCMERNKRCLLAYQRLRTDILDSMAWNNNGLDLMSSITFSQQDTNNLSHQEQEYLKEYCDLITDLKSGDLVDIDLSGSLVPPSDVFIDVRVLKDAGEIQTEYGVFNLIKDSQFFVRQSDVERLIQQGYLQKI
T3 chain 2: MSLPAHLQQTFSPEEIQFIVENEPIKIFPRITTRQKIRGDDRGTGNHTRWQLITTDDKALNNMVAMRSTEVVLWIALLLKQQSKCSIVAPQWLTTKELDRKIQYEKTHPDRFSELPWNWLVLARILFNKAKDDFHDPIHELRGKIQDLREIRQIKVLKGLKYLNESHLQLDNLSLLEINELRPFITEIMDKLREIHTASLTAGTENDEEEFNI
T3 chain 3: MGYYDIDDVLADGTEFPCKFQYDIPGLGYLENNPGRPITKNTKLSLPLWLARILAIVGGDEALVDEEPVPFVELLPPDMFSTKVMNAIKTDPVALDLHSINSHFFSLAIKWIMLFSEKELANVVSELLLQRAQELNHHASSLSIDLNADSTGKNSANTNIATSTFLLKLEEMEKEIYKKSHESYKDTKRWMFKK
T3 chain 4: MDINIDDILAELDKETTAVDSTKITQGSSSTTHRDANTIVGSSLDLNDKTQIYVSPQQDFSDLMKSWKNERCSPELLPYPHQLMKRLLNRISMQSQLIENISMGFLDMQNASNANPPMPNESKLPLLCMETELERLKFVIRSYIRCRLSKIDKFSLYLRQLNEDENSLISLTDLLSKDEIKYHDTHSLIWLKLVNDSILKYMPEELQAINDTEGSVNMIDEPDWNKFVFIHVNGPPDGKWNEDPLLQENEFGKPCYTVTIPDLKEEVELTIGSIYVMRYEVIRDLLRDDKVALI

B1: Sld2 T84D (protein)
chain: MYSFELDKLKIELKTWEHDFIDKNKREPTRDDIKSLRTVRQMYKQYSTLKKKQSLQRQKVDTQESVELPAHKKDHDEVVEIGPDPQVYGKAISIFDMNLSPIKPIYMTFTNNIDVNNDNSKTISNESSPRKTILLKSSPADRTLVAEPISSVKRQLNFQMLNASSTRTPTSSPCKNRNGKLVEIKKCSPTINPPLESGKPSGYYGPNSPLKLDEENIHLNISLNSSTKRRLQIAYPSLQKTPSKDQADISTSFSPSPLIRRPLTKSLIELAREHTEIVKEFGVLQEEDIEEEEEGEEGENGYDEKNHEDDFGLEDELIRPKVVKDIFQEDDDNDDSQAREDTFIRKRPKRRKVIRRLRDNDPETETAGFERDVHKELVKLKRRKVAEFLGSTSQISDTEFEHDPEASSGVVSSEQKPTAKRKGRKKYNLVSNNFRRLKLPKKNRFSNGRWGRR
As to B1, the response in assay [1] (1 pmole Sld2T84D input) came to 0.28 pmol; in assay [1] (3 pmoles Sld2T84D input) it was 0.64 pmol; in assay [1] (10 pmoles Sld2T84D input), 1.6 pmol.

B2: GST-Dpb11-wild-type, P47027 K463E; K469E; R538E; K549E (protein)
chain: MKPFQGITFCPTAINNEILAKKISKKIIKLGGIFSKDLTRQVNVLVVGSTTNTNKFKFAVKHRFDIIFIDIQAIDDIYQLWLSGENILPDSNTATMTGSTYEMLKILYRRFSFKYLHNFNIFIGRITDTNITSIDSLVRSIKKLGCSSYNYQNFVIKDTSSHNDDDDQGQNGQISIFVTDTLLGARVNAAIEQNIPIVHFKWILDCQKRSALLPYDPYYLLPNIKDLPYDSIGSNSCDCWDKINTTFPTNIDAQSSLQRQQSSSTLTPSLPKTSSLLNKFKPKGEKIWDKAMSLQQHSKTNFSVLGQSPLSINNKQEDLSDNSTLIFKNCAFIIHHIFPGNHRSILTKIVVQNGGKIETSYLSGIYDHSYYIIPSNKALDSFNDLPEIIDDNDGIVTEFFIERCLYYQKLLHPIDLWSKPFLSTIEFQVSSSSKLLHHEFSSSPFLNVTITGFSGVELLHLTEVLNLLEPMGINYVEYLNKSTDILLINLAALPSIPKTHPLWSNEFSDLFTQFCINNNNDDPGDNNRKDFQNNSILENSMKRKIEYIEKFHSIPVVTPAFIFKLLSAASGENNEIFLNNIKWCIICPRGHKDDFKCKIKKPYYTSISSEKKYQN
As to B2, the response in assay [2] (1 pmole CDK-Sld3 input, parent: est. 0.34) was found to be 0.29 pmol; in assay [2] (3 pmoles CDK-Sld3 input, parent: est. 0.60), 0.65 pmol; in assay [2] (10 pmoles CDK-Sld3 input, parent: est. 1.5), 1.4 pmol; in assay [3] (1 pmole GINS input, parent: est. 0.60), 0.65 pmol; in assay [3] (3 pmoles GINS input, parent: est. 1.4) it was 1.4 pmol; in assay [3] (10 pmoles GINS input, parent: est. 2.5), 2.6 pmol.
